Results published in PMC2644404 (Journal of molecular biology, 2008).

Biological target: T1, Human salivary α-amylase (human, UniProt P0DUB6 16-511)
T1 sequence (looked up): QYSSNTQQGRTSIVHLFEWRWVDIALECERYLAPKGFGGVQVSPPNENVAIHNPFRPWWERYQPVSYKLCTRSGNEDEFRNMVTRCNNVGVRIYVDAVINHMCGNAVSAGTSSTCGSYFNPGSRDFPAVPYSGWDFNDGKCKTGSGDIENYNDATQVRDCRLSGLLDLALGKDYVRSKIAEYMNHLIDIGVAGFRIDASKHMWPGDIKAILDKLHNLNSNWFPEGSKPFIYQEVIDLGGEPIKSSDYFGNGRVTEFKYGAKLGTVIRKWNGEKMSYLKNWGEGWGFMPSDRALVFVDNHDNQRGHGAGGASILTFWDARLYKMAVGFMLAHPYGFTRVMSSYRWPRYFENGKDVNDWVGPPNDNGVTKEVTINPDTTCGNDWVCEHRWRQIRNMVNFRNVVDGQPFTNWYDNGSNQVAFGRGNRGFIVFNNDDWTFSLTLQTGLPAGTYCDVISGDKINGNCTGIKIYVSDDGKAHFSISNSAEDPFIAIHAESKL
Experiment: SPR

B1: Amylase binding protein A (natural protein, S. gordonii, UniProt A8AZZ3 1-195, looked up)
chain: MKKVLLSSVVALTLFAAAAPVFSADEATDAARNNDGAYYLQTQFTNADKVNEYLAQHDGEIRAEAAADPAVVAAKAALDAVEGGSHNYGEVKAAYEAAFNNAFNAVRNKYVQQFQATYNNATEQEGKTYIQGETPEQANARYLKRVGAANNQNPAAEDKGATTPASKEEAKKSEAAAKNAGKAAGKALPKTSAVK
Work on B1 yielded a Ka of 8.79e+07 M⁻¹, a Kd of 11.3 nM and a koff of 0.000307 s⁻¹. The kon was 27000 M⁻¹ s⁻¹.
